For 42 molecules, binding signal results are on record in PMC10681739, “High-throughput data and modeling reveal insights into the mechanisms of cooperative DNA-binding by transcription factor proteins”.

In this series the target is ETS1:RUNX1 (Homo sapiens, UniProt P14921;Q01196 full;full). The series can be described thus: gcPBM; 1 nM ETS1 + 25 nM RUNX1, anti-ETS1 signal, normalised. Particulars: tags: N-terminal GST (pDEST15), kept (PMC6008103); copies: 1;1; label: surface-attached array probe.
Sequence of ETS1:RUNX1 (P14921 whole entry, chain 1 of 2): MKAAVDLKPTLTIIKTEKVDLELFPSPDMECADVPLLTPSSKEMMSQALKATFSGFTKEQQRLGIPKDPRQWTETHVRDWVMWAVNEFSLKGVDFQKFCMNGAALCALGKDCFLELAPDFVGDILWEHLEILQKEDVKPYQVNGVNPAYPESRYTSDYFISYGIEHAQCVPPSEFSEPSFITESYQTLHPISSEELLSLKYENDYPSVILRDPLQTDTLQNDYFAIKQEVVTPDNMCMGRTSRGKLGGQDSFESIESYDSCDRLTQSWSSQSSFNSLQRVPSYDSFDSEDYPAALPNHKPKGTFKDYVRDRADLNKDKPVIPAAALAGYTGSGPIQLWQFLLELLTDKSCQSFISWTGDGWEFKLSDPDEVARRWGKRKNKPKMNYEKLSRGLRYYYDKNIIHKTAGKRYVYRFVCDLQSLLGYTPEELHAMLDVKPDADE
Sequence of ETS1:RUNX1 (Q01196 whole entry, chain 2 of 2): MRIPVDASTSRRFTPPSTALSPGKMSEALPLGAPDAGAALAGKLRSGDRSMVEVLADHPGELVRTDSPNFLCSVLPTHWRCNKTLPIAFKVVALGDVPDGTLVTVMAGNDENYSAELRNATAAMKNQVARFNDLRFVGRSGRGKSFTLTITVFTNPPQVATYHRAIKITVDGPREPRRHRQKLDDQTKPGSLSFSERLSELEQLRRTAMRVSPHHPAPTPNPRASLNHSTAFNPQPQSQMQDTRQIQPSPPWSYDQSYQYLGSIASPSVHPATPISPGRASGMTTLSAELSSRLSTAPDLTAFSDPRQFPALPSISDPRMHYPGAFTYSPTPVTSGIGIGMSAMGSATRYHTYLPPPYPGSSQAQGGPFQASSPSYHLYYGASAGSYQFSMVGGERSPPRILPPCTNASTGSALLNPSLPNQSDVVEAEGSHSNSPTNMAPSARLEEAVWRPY

B1: Table S2 A row 466 (dsDNA)
DNA 1: GTGCTAGGACACAGGAAGCGATACCACAAAGAACAT
DNA 2: ATGTTCTTTGTGGTATCGCTTCCTGTGTCCTAGCAC
On to B1, for which the binding signal is 19800 PBM fluorescence, median of replicate spots.

B2: Table S2 A row 1263 (dsDNA)
DNA 1: TCACATTTTGCCGGATGTGGGTTGAGGGCATGCTGC
DNA 2: GCAGCATGCCCTCAACCCACATCCGGCAAAATGTGA
As to B2, the binding signal is 14600 PBM fluorescence, median of replicate spots.

B3: Table S2 A row 270 (dsDNA)
DNA 1: CTCATTGACAGGAAGTCTAACCACAGGCTTAGGCCC
DNA 2: GGGCCTAAGCCTGTGGTTAGACTTCCTGTCAATGAG
For the molecule B3, the binding signal was 29200 PBM fluorescence, median of replicate spots.

B4: Table S2 A row 1210 (dsDNA)
DNA 1: CGGGAGGGGCAGGAAGCGGACTGCGGTGGGGAAGGG
DNA 2: CCCTTCCCCACCGCAGTCCGCTTCCTGCCCCTCCCG
For the molecule B4, the binding signal was 16400 PBM fluorescence, median of replicate spots.

B5: Table S2 A row 930 (dsDNA)
DNA 1: AGCTCCACCGGAAACGGCCTGGCCGCAGCCAATCAG
DNA 2: CTGATTGGCTGCGGCCAGGCCGTTTCCGGTGGAGCT
B5: the binding signal was 16700 PBM fluorescence, median of replicate spots.

B6: Table S2 A row 987 (dsDNA)
DNA 1: TGGGCAGGAAGTGGTATCTGATTGTGGTTTTGATTT
DNA 2: AAATCAAAACCACAATCAGATACCACTTCCTGCCCA
On to B6, for which the binding signal is 25700 PBM fluorescence, median of replicate spots.

B7: Table S2 A row 1401 (dsDNA)
DNA 1: GCATTTACGGGCAGGAAATGAAACCACAGAGTACAA
DNA 2: TTGTACTCTGTGGTTTCATTTCCTGCCCGTAAATGC
For B7, the binding signal is 36500 PBM fluorescence, median of replicate spots.

B8: Table S2 A row 462 (dsDNA)
DNA 1: TTCAACAGGATGTGGGAACTTGACTCTCGCCGCAAA
DNA 2: TTTGCGGCGAGAGTCAAGTTCCCACATCCTGTTGAA
On to B8, for which the binding signal is 13800 PBM fluorescence, median of replicate spots.

B9: Table S2 A row 1758 (dsDNA)
DNA 1: GCTGATAGAACAGGATGTGGTAAAGAAGCAGGCCAA
DNA 2: TTGGCCTGCTTCTTTACCACATCCTGTTCTATCAGC
As for B9, the binding signal was 24600 PBM fluorescence, median of replicate spots.

B10: Table S2 A row 1753 (dsDNA)
DNA 1: TGAAGCAGGCGGAAGTGCTGTGGTTTCTGGCGACTG
DNA 2: CAGTCGCCAGAAACCACAGCACTTCCGCCTGCTTCA
In the case of B10, the binding signal was 15300 PBM fluorescence, median of replicate spots.

B11: Table S2 A row 338 (dsDNA)
DNA 1: GCCCAGGGCGGCCGGAAGTTTGCGGGGCGGGGCGGA
DNA 2: TCCGCCCCGCCCCGCAAACTTCCGGCCGCCCTGGGC
Consider B11, for which the binding signal was 16100 PBM fluorescence, median of replicate spots.

B12: Table S2 A row 966 (dsDNA)
DNA 1: GGCCTTCATTACACAGGATGCGGTTGAAATGCATCA
DNA 2: TGATGCATTTCAACCGCATCCTGTGTAATGAAGGCC
Turning to B12, the binding signal is 18400 PBM fluorescence, median of replicate spots.

B13: Table S2 A row 647 (dsDNA)
DNA 1: CCCAGCCCTGCTGCCGGATGTGGTGAGGCCCAGGTG
DNA 2: CACCTGGGCCTCACCACATCCGGCAGCAGGGCTGGG
On to B13, for which the binding signal is 13200 PBM fluorescence, median of replicate spots.

B14: Table S2 A row 1146 (dsDNA)
DNA 1: GACACAAGCCTCACAGGATGTGGTCAAAGAAGGTTG
DNA 2: CAACCTTCTTTGACCACATCCTGTGAGGCTTGTGTC
Regarding B14, the binding signal is 20600 PBM fluorescence, median of replicate spots.

B15: Table S2 A row 489 (dsDNA)
DNA 1: TCTAAATCACTTCCTGTTACAGAAACCACAGGCCTG
DNA 2: CAGGCCTGTGGTTTCTGTAACAGGAAGTGATTTAGA
As to B15, the binding signal was 13000 PBM fluorescence, median of replicate spots.

B16: Table S2 A row 1548 (dsDNA)
DNA 1: TGCAGTCGTGAAAAAGGAAGTGGTTAAAGTGGCTAC
DNA 2: GTAGCCACTTTAACCACTTCCTTTTTCACGACTGCA
B16: the binding signal is 12100 PBM fluorescence, median of replicate spots.

B17: Table S2 A row 1136 (dsDNA)
DNA 1: CCCGCTCACGCCGGAAGTGGTTTGCGTTTTCAAGAT
DNA 2: ATCTTGAAAACGCAAACCACTTCCGGCGTGAGCGGG
B17: the binding signal is 22300 PBM fluorescence, median of replicate spots.

B18: Table S2 A row 271 (dsDNA)
DNA 1: CACCCCCCCAGTGCAGGAAGTGGTTTTCGAGGGCAG
DNA 2: CTGCCCTCGAAAACCACTTCCTGCACTGGGGGGGTG
Turning to B18, the binding signal was 14300 PBM fluorescence, median of replicate spots.

B19: Table S2 A row 644 (dsDNA)
DNA 1: GCCGGCGGCCGGAAGTCTATCCCGCAGAAGCGCAGC
DNA 2: GCTGCGCTTCTGCGGGATAGACTTCCGGCCGCCGGC
In the case of B19, the binding signal was 19100 PBM fluorescence, median of replicate spots.

B20: Table S2 A row 649 (dsDNA)
DNA 1: TCTGTCGTCCCACTTCCTGCTGCGGTTTCCACCTCG
DNA 2: CGAGGTGGAAACCGCAGCAGGAAGTGGGACGACAGA
For B20, the binding signal was 14900 PBM fluorescence, median of replicate spots.

B21: Table S2 A row 223 (dsDNA)
DNA 1: AGGGAACAGGAAATGCAAAAAACCACAAGGGACAAG
DNA 2: CTTGTCCCTTGTGGTTTTTTGCATTTCCTGTTCCCT
For the molecule B21, the binding signal is 18100 PBM fluorescence, median of replicate spots.

B22: Table S2 A row 443 (dsDNA)
DNA 1: CCATGCACAACAGGATGTGGTTAGACAGTCAAAATT
DNA 2: AATTTTGACTGTCTAACCACATCCTGTTGTGCATGG
As for B22, the binding signal was 29600 PBM fluorescence, median of replicate spots.

B23: Table S2 A row 397 (dsDNA)
DNA 1: AGGGGAGGAACCAGGAAGTTGTGGTAAACTGTAGCA
DNA 2: TGCTACAGTTTACCACAACTTCCTGGTTCCTCCCCT
Turning to B23, the binding signal was 15800 PBM fluorescence, median of replicate spots.

B24: Table S2 A row 483 (dsDNA)
DNA 1: AACCAAACAGCCACAGGAAGTGGTTTCTGTGATTCA
DNA 2: TGAATCACAGAAACCACTTCCTGTGGCTGTTTGGTT
Consider B24, for which the binding signal is 16800 PBM fluorescence, median of replicate spots.

B25: Table S2 A row 1302 (dsDNA)
DNA 1: AACAGACAGGATGTGGCCTCTGCCAAAACCACCATC
DNA 2: GATGGTGGTTTTGGCAGAGGCCACATCCTGTCTGTT
For the molecule B25, the binding signal was 12700 PBM fluorescence, median of replicate spots.

B26: Table S2 A row 280 (dsDNA)
DNA 1: CCTGCAGCAACAGGATGTGGTTTGAAAGGATGAAAG
DNA 2: CTTTCATCCTTTCAAACCACATCCTGTTGCTGCAGG
Consider B26, for which the binding signal is 32100 PBM fluorescence, median of replicate spots.

B27: Table S2 A row 517 (dsDNA)
DNA 1: GTTAGCGTGATCGGAGGATGTGGTTTTCCTCCCTCT
DNA 2: AGAGGGAGGAAAACCACATCCTCCGATCACGCTAAC
For the molecule B27, the binding signal was 12400 PBM fluorescence, median of replicate spots.

B28: Table S2 A row 978 (dsDNA)
DNA 1: ACTGAACAAACCGGATGTGGTTGCCACCTGCAATCT
DNA 2: AGATTGCAGGTGGCAACCACATCCGGTTTGTTCAGT
For the molecule B28, the binding signal was 38500 PBM fluorescence, median of replicate spots.

B29: Table S2 A row 167 (dsDNA)
DNA 1: GACAATGAGCGCACAGGATGTGGTTTGGCGGCAGGG
DNA 2: CCCTGCCGCCAAACCACATCCTGTGCGCTCATTGTC
As for B29, the binding signal was 33400 PBM fluorescence, median of replicate spots.

B30: Table S2 A row 435 (dsDNA)
DNA 1: GACACAAGAACAGCAGGATGTGGTCAGAGGCGTCGT
DNA 2: ACGACGCCTCTGACCACATCCTGCTGTTCTTGTGTC
For the molecule B30, the binding signal is 17700 PBM fluorescence, median of replicate spots.

B31: Table S2 A row 1142 (dsDNA)
DNA 1: ACAATAACAGGAAGTGGTGGGGACTGCGGTGACCTG
DNA 2: CAGGTCACCGCAGTCCCCACCACTTCCTGTTATTGT
B31: the binding signal is 16500 PBM fluorescence, median of replicate spots.

B32: Table S2 A row 327 (dsDNA)
DNA 1: AATTGAGACAGGAAATGTTGGTTTGTGGTCAGGCAC
DNA 2: GTGCCTGACCACAAACCAACATTTCCTGTCTCAATT
For the molecule B32, the binding signal is 28000 PBM fluorescence, median of replicate spots.

B33: Table S2 A row 1217 (dsDNA)
DNA 1: TGGGGGATGGCAGCAGGATGTGGTTATCTCAGAAAG
DNA 2: CTTTCTGAGATAACCACATCCTGCTGCCATCCCCCA
As for B33, the binding signal is 29000 PBM fluorescence, median of replicate spots.

B34: Table S2 A row 895 (dsDNA)
DNA 1: TCAAGTTTGGTAACAGGATGTGGTAGGAGGAACACA
DNA 2: TGTGTTCCTCCTACCACATCCTGTTACCAAACTTGA
Consider B34, for which the binding signal is 13400 PBM fluorescence, median of replicate spots.

B35: Table S2 A row 166 (dsDNA)
DNA 1: GATATGGCAGGAAGTAGGGCCTGGAAACCGCACGGC
DNA 2: GCCGTGCGGTTTCCAGGCCCTACTTCCTGCCATATC
Turning to B35, the binding signal is 25500 PBM fluorescence, median of replicate spots.

B36: Table S2 A row 92 (dsDNA)
DNA 1: GTCCCCGTAACAGGATGTGGTGAGCTGTTATACCAC
DNA 2: GTGGTATAACAGCTCACCACATCCTGTTACGGGGAC
On to B36, for which the binding signal was 19700 PBM fluorescence, median of replicate spots.

B37: Table S2 A row 1206 (dsDNA)
DNA 1: TTGATTGGAGCAGGATGTGGTCAGAACAGTATGCAG
DNA 2: CTGCATACTGTTCTGACCACATCCTGCTCCAATCAA
On to B37, for which the binding signal was 23200 PBM fluorescence, median of replicate spots.

B38: Table S2 A row 964 (dsDNA)
DNA 1: AATCTGAAACAGGAAATAAGTCTGTGGTTGTGTGTT
DNA 2: AACACACAACCACAGACTTATTTCCTGTTTCAGATT
Take B38: the binding signal is 23600 PBM fluorescence, median of replicate spots.

B39: Table S2 A row 393 (dsDNA)
DNA 1: CTGACGCATTTCCGGCCTTTGCGGTTGATCGGTCAT
DNA 2: ATGACCGATCAACCGCAAAGGCCGGAAATGCGTCAG
On to B39, for which the binding signal was 30800 PBM fluorescence, median of replicate spots.

B40: Table S2 A row 513 (dsDNA)
DNA 1: AGGACGGGCGGAAGTGGCTGCGGTGGATGGTGGGAG
DNA 2: CTCCCACCATCCACCGCAGCCACTTCCGCCCGTCCT
On to B40, for which the binding signal is 14100 PBM fluorescence, median of replicate spots.

B41: Table S2 A row 702 (dsDNA)
DNA 1: CACCTCCTCTCCGGATGCGGTTTGTTCTGCTTGTAG
DNA 2: CTACAAGCAGAACAAACCGCATCCGGAGAGGAGGTG
As for B41, the binding signal was 12500 PBM fluorescence, median of replicate spots.

B42: Table S2 A row 553 (dsDNA)
DNA 1: CCTTGCAGCAACGGATGTGGGTTTTTTTTTTTCTTT
DNA 2: AAAGAAAAAAAAAAACCCACATCCGTTGCTGCAAGG
As to B42, the binding signal was 17200 PBM fluorescence, median of replicate spots.
